Assay results as given in US11254722B2, “Recombinant proteins and uses thereof” (ACADEMIA SINICA, priority 2017, dated 2022).

T1: VEGF (Homo sapiens, UniProt P15692)
T1 construct: purchased R&D Systems
T1 sequence (P15692 27-191 isoform P15692-4): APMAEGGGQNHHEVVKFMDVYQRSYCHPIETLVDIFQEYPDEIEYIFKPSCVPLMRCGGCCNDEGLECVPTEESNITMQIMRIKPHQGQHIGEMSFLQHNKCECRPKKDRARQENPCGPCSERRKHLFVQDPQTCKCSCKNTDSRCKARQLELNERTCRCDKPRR

B1: h3t33fc: IGFBP3 with IGFBP3 linker deletion 1-Fc, SEQ ID NO: 8 (protein)
chain: MSEVPVARVWLVLLLLTVQVGVTAGGASSAGLGPVVRCEPCDARALAQCAPPPAVCAELVREPGCGCCLTCALSEGQPCGIYTERCGSGLRCQPSPDEARPLQALLDGRGLCVNASAVSKGHAKDSQRYKVDYESQSTDTQNFSSESKRETEYGPCRREMEDTLNHLKFLNVLSPRGVHIPNCDKKGFYKKKQCRPSKGRKRGFCWCVDKYGQPLPGYTTKGKEDVHCYSMQSKVECPPCPAPPVAGPSVFLFPPKPKDQLMISRTPEVTCVVVDVSHEDPEVKFNWYVDGVEVHNAKTKPREEQYNSTYRVVSVLTVLHQDWLNGKEYKCKVSNKGLPSSIEKTISKAKGQPREPQVYTLPPSREEMTKNQVSLTCLVKGFYPSDIAVEWESNGQPENNYKTTPPVLDSDGSFFLYSKLTVDKSRWQQGNVFSCSVMHEGLHNHYTQKSLSLSPGK

Columns and labels:
[1] = tested on: cancer cells; test: In vitro proliferation of cancer cells stimulated by growth factors (Table 8); type: cell-based
Method: (§1) For the proliferation assay, cells except for HUVEC were seeded at a density of 1,000 to 6,000 in 96 wells in an assay buffer of DMEM/F12 plus 0.2% BSA and 10 ug/ml transferrin. Chemical inhibitors were added after 16-20 hours after plating; IGF-1 or other growth factors or test chimeras in assay buffer were added at the time of plating or 16-20 hours after plating. 5,000 HUVEC ells were plated in poly-L-lysine coated 96 wells in M199 with 1%/FBS and HEPES. After 3 to 4 days of culture, growth was determined by incubating cells with Alamar blue for 4 to 6 hours and then the fluorescence (RFU) at 544/590 nm was read. For long term proliferation assays, cells were plated in the growth media with 5% or 10% FBS at densities of 500 to 10,000 cells per cm^2 growth area and grown for 7 to 21 days. Inhibitors and effectors were added 1-4 days after plating. Cells were exposed to cisplatin or gemcitabine for two days. Medium was renewed twice weekly. At completion, cells were fixed and then stained with Giemsa.
(§2) The BP3-fc construct inhibited the proliferation of cancer cells that had been stimulated by IGF-1, IGF-2, neuregulin, HGF, and bFGF.

[2] = molecular target: T1, VEGF; test: In vitro proliferation stimulated by VEGF (Table 8); type: cell-based
Method: as §1
The BP3-VEGF-trap-fc (including the IGFBP3 domains, the VEGFR1 domain 2 and VEGFR2 domain 3 (VEGF-trap (22)), and human immunoglobulin Fc region) broadened the binding to include VEGF-A, VEGF-B, and placental growth factor (PIGF). This BP3-VEGF-trap chimera could inhibit the proliferation stimulated by IGF-1, IGF-2, neuregulin, PDGF-BB, HGF, bFGF, VEGF-A, and PIGF (see, Table 8).

[3] = tested on: fibroblasts; test: Proliferation induced by PDGF BB in fibroblasts (Table 8); type: cell-based
Method: as §1, §2

[4] = molecular target: T2, TGF-α (Homo sapiens, UniProt P01135); test: Biacore binding to TGF-α; conditions: Table 5
T2 construct: purchased R&D Sciences or SinoBiologicals
Method: (§3) Biacore binding was performed at David Myszka's laboratory at the University of Utah or at the Genomic Research Center at Academia Sinica. Surfaces of binding protein chimera were made via chemical immobilization on a CM4 chip using standard amine coupling chemistry. […] Excess surface carboxyl activated sites on all four flow cells was blocked using the doubly positively charged species ethylenediamine. Binding experiments (but not immobilizations) in HBS-P (10 mM HEPES pH 7.4, 150 mM NaCl, 0.05% P20), The HBS-P was supplemented with BSA at 0.2 mg/mL, or HBS-P was supplemented with 500 mM NaCl (650 mM NaCl, final concentration). Analytes were also reconstituted in the corresponding buffer. All experiments were performed at 25° C. 1/150 dilutions of phosphoric acid were used to regenerate IGFBP3-Fc surfaces and a sequence of 3 M MgCl2 followed by 5 M GuCl was used to regenerate surfaces immobilized with growth factor. Dissociation constants reported below used immobilized binding protein unless noted. Differences between binding constants may be expected between growth factor immobilization and chimera immobilization.

[5] = molecular target: T1, VEGF; test: Biacore binding to VEGF; conditions: Table 5; the kd is very low and difficult to measure
Method: as §3

[6] = tested on: MCF-7 breast cancer cells; test: MCF-7 proliferation assay; type: cell-based; conditions: FIG. 5
Method: (§4) MCF-7 cells (a breast cancer cell line) were maintained in MEM (GIBCO) plus insulin and NEAA and 10% FBS (Hyclone).
as §1
We next examined the effect of 56662 (BP3/Fc) on the proliferation induced by growth factors that interacted with the IGFBP3. The proliferation of MCF-7 breast cancer cells was induced in serum-free medium by individual growth factors like IGF-1, IGF-2, EGF, TGF-a, Nrgbx, b-FGF, and amphiregulin (FIG. 1).

[7] = tested on: HUVEC cells; test: HUVEC proliferation assay; type: cell-based
Method: as §4, §1
Growth factor synergism can also be observed in the proliferation of HUVEC cells.

[8] = tested on: hep3B cells; test: hep3B proliferation assay; type: cell-based, human
Procedure, shortened: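 Cells seeded at 1,000 to 6,000 per well in DMEM/F12 with 0.2% BSA and 10 ug/ml transferrin. Inhibitors added 16-20 h after plating; IGF-1 or other growth factors at plating or 16-20 h later. After 3 to 4 days, growth read by Alamar blue fluorescence at 544/590 nm after 4 to 6 h.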

T2 sequence (P01135 40-89 limits assumed): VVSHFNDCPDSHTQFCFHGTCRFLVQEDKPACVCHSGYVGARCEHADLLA

Molecule | inhibition of proliferation stimulated by HGF [1] | inhibition of proliferation stimulated by IGF-1 [1] | inhibition of proliferation stimulated by IGF-2 [1] | inhibition of proliferation stimulated by bFGF [1] | inhibition of proliferation stimulated by nrgbx [1] | inhibition of proliferation stimulated by VEGF [2] | inhibition of proliferation stimulated by PDGF BB [3] | Dissociation Constants, TGF-α [4] | Dissociation Constants, VEGF [5] | inhibition of IGF-1-induced proliferation of MCF-7, compared to 56662 and chimera B [6] | inhibition of VEGF-induced proliferation of HUVEC cells ([7]; FIG. 6, FIG. 13) | inhibition of HUVEC proliferation induced by IGF, bFGF, HGF or a combination ([7]; FIG. 13) | increase of inhibitory activity of erlotinib ([8]; 100 nM chimera h3t33Fc, hep3B) | inhibition of hep3B cells treated with erlotinib ([8]; combination with erlotinib, FIG. 15, FIG. 16A)
VEGF-trap: the VEGFR1 domain 2 and VEGFR2 domain 3 (VEGF-trap (22)) [reference compound] | no | no | no | no | no | inh | no |  |  |  |  |  |  | 
B1 |  |  |  |  |  |  |  | no binding | no binding | a smaller EC50 and a higher maximal inhibition | did not inhibit | inhibited | about 100 fold | synergistically inhibited
